Paper PMC2665219 (Nucleic Acids Research, 2009)
Where two headings read alike, the source gives them in different places.

Legend:
Assay in all cases: EMSA
EbfC [1] = molecular target: T1, EbfC (Borrelia burgdorferi, UniProt O51418 1-99)
T1 sequence: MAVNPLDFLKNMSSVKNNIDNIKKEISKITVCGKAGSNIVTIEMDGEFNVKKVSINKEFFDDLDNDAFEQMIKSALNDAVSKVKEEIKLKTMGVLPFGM

EbfC N77A = molecular target: T2, EbfC N77A (Borrelia burgdorferi, UniProt O51418 1-99, N77A)
T2 sequence: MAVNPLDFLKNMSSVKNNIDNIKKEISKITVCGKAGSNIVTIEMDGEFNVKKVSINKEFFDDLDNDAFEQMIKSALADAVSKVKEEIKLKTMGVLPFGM

EbfC D20A = molecular target: T3, EbfC D20A (Borrelia burgdorferi, UniProt O51418 1-99, D20A)
T3 sequence: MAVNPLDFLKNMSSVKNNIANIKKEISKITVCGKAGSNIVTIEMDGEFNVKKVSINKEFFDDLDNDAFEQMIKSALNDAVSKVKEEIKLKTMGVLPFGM

EbfC K82A = molecular target: T4, EbfC K82A (Borrelia burgdorferi, UniProt O51418 1-99, K82A)
T4 sequence: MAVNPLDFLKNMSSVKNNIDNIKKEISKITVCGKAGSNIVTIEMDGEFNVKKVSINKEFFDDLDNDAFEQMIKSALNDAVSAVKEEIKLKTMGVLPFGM

EbfC K88A = molecular target: T5, EbfC K88A (Borrelia burgdorferi, UniProt O51418 1-99, K88A)
T5 sequence: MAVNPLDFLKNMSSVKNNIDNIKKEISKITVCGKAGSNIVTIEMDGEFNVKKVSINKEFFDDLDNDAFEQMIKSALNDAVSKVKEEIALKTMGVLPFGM

EbfC K16A = molecular target: T6, EbfC K16A (Borrelia burgdorferi, UniProt O51418 1-99, K16A)
T6 sequence: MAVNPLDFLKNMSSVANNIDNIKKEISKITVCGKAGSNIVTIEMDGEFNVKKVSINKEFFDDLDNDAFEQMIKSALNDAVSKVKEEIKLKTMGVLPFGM

EbfC K84A = molecular target: T7, EbfC K84A (Borrelia burgdorferi, UniProt O51418 1-99, K84A)
T7 sequence: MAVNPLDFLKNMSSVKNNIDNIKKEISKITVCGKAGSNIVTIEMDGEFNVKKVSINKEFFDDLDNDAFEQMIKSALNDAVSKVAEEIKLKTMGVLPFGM

EbfC D78A = molecular target: T8, EbfC D78A (Borrelia burgdorferi, UniProt O51418 1-99, D78A)
T8 sequence: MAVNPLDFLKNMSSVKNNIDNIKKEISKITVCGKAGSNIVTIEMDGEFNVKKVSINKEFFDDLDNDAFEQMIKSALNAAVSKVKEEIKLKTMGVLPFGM

EbfC K23A = molecular target: T9, EbfC K23A (Borrelia burgdorferi, UniProt O51418 1-99, K23A)
T9 sequence: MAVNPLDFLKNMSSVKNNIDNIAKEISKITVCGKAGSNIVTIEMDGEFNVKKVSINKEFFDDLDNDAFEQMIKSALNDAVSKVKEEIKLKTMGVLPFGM

EbfC E85A = molecular target: T10, EbfC E85A (Borrelia burgdorferi, UniProt O51418 1-99, E85A)
T10 sequence: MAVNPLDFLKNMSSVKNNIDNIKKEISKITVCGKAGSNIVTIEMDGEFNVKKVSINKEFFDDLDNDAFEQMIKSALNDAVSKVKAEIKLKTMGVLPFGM

EbfC [2] = molecular target: T1, EbfC; remark: listed apart in the source

B1: b-WT (dsDNA)
DNA 1: TTGTAATGAGTAGTGCATTTGCAATGGAGAGATTTTGGGGAGTTGTTTAAAATTACATTTGCGTTTTGTTAAAATGTAACAGCTGAATGTAACAAAATTATATATTTAAATCTTTGAAATATTGC
DNA 2: GCAATATTTCAAAGATTTAAATATATAATTTTGTTACATTCAGCTGTTACATTTTAACAAAACGCAAATGTAATTTTAAACAACTCCCCAAAATCTCTCCATTGCAAATGCACTACTCATTACAA
Kd (EbfC [1]): 0.313 µM
binding result (EbfC N77A): no binding
binding result (EbfC D20A): no binding
binding result (EbfC K82A): no binding
binding result (EbfC K88A): no binding
binding result (EbfC K16A): no binding
binding result (EbfC K84A): no binding
binding result (EbfC D78A): no binding
binding result (EbfC K23A): no binding
binding result (EbfC E85A): no binding
Kd (EbfC [2]): 0.388 ± 0.108 µM
